Marks after values point to notes of the source that are not given here.
Legend:
[1] = test system: RD (skeletal muscle cancer cells); experiment: Annexin-V binding apoptosis assay after transfection, RD cells; format: cell-based, human; conditions: annexin-V binding four hours after transfection
Procedure: (§1) In these experiments, C/EBPβ-Ala^217 was tested in two mesenchymal cell lines for its ability to induce apoptosis. Human mesenchymal cell lines 1321-N1 (glial cancer cells; obtained from Dr. Joan Brown, at the University of California, San Diego), RD (skeletal muscle cancer cells; ATCC Accession No. CCL-136), human fibroblasts (98VA3N cells, obtained from Dr. Jerry VanderBerg, at the Veterans Administration Medical Center, San Diego, Calif.), ES2 (ovarian cancer cell line), C3A (liver cancer cell line), and MCF-7 breast cancer cells were cultured in minimal essential medium supplemented with fetal bovine serum as known in the art (See e.g., Buck et al., EMBO J., 13:151-160 (1994)). As additional cell types find use in the present invention, it is not intended that the present invention be limited to these specific cell lines. Indeed, similar results have been obtained with other cell types (e.g., CCF-STTG1 cells (ATCC Accession No. CRL-1718)) (data not shown).
(§2) Cells were co-transfected with vectors expressing the indicator protein GFP and C/EBPβ-Ala^217 as known in the art (See, Buck et al., Mol. Cell., 4:1087-1092 (1999)). Control cells were only transfected with GFP. […]

[2] = test system: 1321-N1 (glial cancer cells); experiment: Annexin-V binding apoptosis assay after transfection, 1321-N1 cells; format: cell-based, human; conditions: annexin-V binding four hours after transfection
Procedure: as §1, §2

[3] = test system: human fibroblasts (98VA3N cells); experiment: Annexin-V binding apoptosis assay after transfection, 98VA3N cells; format: cell-based; conditions: annexin-V binding four hours after transfection
Procedure: as §1, §2

[4] = test system: C3A (liver cancer cell line); experiment: Annexin-V binding apoptosis assay after transfection, C3A cells; format: cell-based, human; conditions: annexin-V binding four hours after transfection
Procedure: as §1, §2

[5] = test system: ES2 (ovarian cancer cell line); experiment: Annexin-V binding apoptosis assay after transfection, ES2 cells; format: cell-based, human; conditions: annexin-V binding four hours after transfection
Procedure: as §1, §2

[6] = test system: MCF-7 breast cancer cells; experiment: Annexin-V binding apoptosis assay after transfection, MCF-7 cells; format: cell-based, human; conditions: annexin-V binding four hours after transfection
Procedure: as §1, §2

hepatic stellate cells = experiment: Apoptosis of activated stellate cells transfected with C/EBPβ constructs, annexin-V-PE binding; format: cell-based, mouse; conditions: transfected cells on collagen type I matrix
Text: FIG. 1 provides data showing that phosphorylation of C/EBPβ on Thr^217 is required for hepatic stellate cell survival. Panel A provides phosphopeptide maps of in vivo labeled endogenous C/EBPβ in day-4 quiescent and activated primary mouse stellate cells cultured from the time of isolation on EHS or collagen type I matrix, respectively. The arrow indicates the peptide containing Phospho-Thr^217 in activated cells. […] Panel B provides phosphopeptide maps of in vitro labeled C/EPBβ. Active p90RSK phosphorylated C/EPBβ, but not C/EBPβ-Ala^217 on Thr^217 in vitro (arrowheads). Panel C provides results for cells cultured on collagen type I transfected with MSV-C/EBPβ antisense (AS), MSV-C/EBPβ sense (S), or MSV-C/EBPβ-Ala^217 together with CMV-GFP (green fluorescent protein) and p90RSK (1 μg each), as indicated in the Figure. Four hours after transfection, annexin-V-PE binding to plasma membranes was determined. The values presented are the percentage of transfected cells (green) that were annexin-V-PE (+) (red) (P<0.05 for C/EBPβ AS, and C/EBPβ-Ala^217). Panel D provides results for cells transfected as in […] with vectors expressing dominant negative mutants for MEKK1, IκBα, or p90RSK, or treated with the proteasome inhibitor lactacystin (10 μM) (closed bars), and co-transfected with MSV-C/EBPβ-Glu^217 (1 μg each) (open bars) as indicated. Annexin-V-PE binding was determined as described for Panel A (P<0.05 for C/EBPβ-Glu^217). Panel E provides results for cells transfected as described for Panel C, with a dominant-negative p90RSK, treated with FAS (100 nM for 6 hours) or cultured in a serum-free medium for 6 hours (closed bars), and co-transfected with MSV-C/EBPβ-Glu^217 (1 μg each) (open bars), as indicated. Cell death was determined by nuclear staining with Hoechst 33342 (P<0.05 for C/EBPβ-Glu^217 in RSK mut and FAS-treated cells).
FIG. 4 provides results showing that C/EBPβ PThr^217 associates with procaspases 1 and 8, and inhibits their activation. Panel A provides schematic representations of C/EBPβ peptides. The activation (dotted bars), DNA binding (solid bars) and dimerization (hatched bars) domains are shown. […] Panel C provides results showing that C/EBPβ and procaspase 8 were detected in activated stellate cells isolated from C/EBPβ^+/+ mice by confocal microscopy using specific antibodies (Santa Cruz Biotechnology). Control C/EBPβ^−/− stellate cells were negative for C/EBPβ, positive for procaspase 8, and apoptotic. Panel D provides immunoblot results for MSV vectors expressing C/EBPβ-HA (hemagglutinin protein) peptides (0.3 μg) transfected into activated stellate cells. The expressed peptides were immunoprecipitated with anti-HA antibodies. C/EBPβ-PThr^217 was detected using a specific antibody, only in cells expressing wild-type C/EBPβ. […] RSK was associated with all C/EBPβ peptides. Neither C/EBPβ nor procaspases 1 and 8 were detected in C/EBPβ immunoprecipitates from cells expressing C/EBPβ AS. Reciprocal immunoprecipitations of procaspases and RSK confirmed these associations.
Adult male Sprague-Dawley rats and adult male C/EBPβ^+/+ and C/EBPβ^−/− (Screpanti et al., supra; and Buck et al., (1999), supra), C/EBPβ-Ala^217 and C/EBPβ-Asp^105 transgenic mice were used for the isolation of primary hepatic stellate cells (Houglum et al., supra). Primary hepatic stellate cells were isolated by collagenase/pronase perfusion and purified by a single step density Nycodenz gradient (Accurate Chemical & Scientific) as known in the art (See, Lee et al., (1995), supra). Cells were plated on type I collagen matrix (Becton Dickinson) or EHS matrix (Matrigel, Collaborative Biomedical Products). Cells were cultured with 10% fetal calf serum/10% fetal bovine serum and transfected with lipofectamine (GIBCO) for DNA vectors or with the Chariot reagent (Active Motif) for peptides (10 μM) as known in the art (See, Houglum et al., supra; and Morris et al., J. Biol. Chem., 274:24942-24946 (1999)). […]

B1: C/EBPβ-Ala^217: modified murine C/EBPβ with mutation of Thr^217 to Ala (SEQ ID NO:3), nonphosphorylatable dominant negative mutant (protein, listed as Mus musculus)
chain: MHRLLAWDAACLPPPPAAFRPMEVANFYYEPDCLAYGAKAARAAPRAPAAEPAIGEHERAIDFSPYLEPLAPAADFAAPAPAHHDFLSDLFADDYGAKPSKKPADYGYVSLGRAGAKAAPPACFPPPPPAALKAEPGFEPADCKRADDAPAMAAGFPFALRAYLGYQATPSGSSGSLSTSSSSSPPGTPSPADAKAAPAACFAGPPAAPAKAKAKKAVDKLSDEYKMRRERNNIAVRKSRDKAKMRNLETQHKVLELTAENERLQKKVEQLSRELSTLRNLFKQLPEPLLASAGHC
- Apoptosis (%) [1]: 46* %
- Apoptosis (%) [2]: 56* %
- Apoptosis (%) [3]: 80* %
- Apoptosis (%) [4]: 34* %
- Apoptosis (%) [5]: 44* %
- Apoptosis (%) [6]: 49* %
- Effect of expressed construct on apoptosis / survival of stellate cells (hepatic stellate cells): became apoptotic

— patent publication US8129349B2, “Treatment of disease by inducing cell apoptosis” (The Regents of the University of California, priority 2000, dated 2012)
